# B1: [^3H]-neurotensin [modified: pyroGlu at position 1; [3,11-tyrosyl-3,5-^3H(N)] (tritium on Tyr3 and Tyr11); pyroGlu at position 1; [3,11-tyrosyl-3,5-^3H(N)] (tritium on Tyr3 and Tyr11)] [not stated] / wild-type NTS1 (N-terminally truncated … (parent complex)
# chain 1: not shown
# chain 2: TSESDTAGPNSDLDVNTDIYSKVLVTAIYLALFVVGTVGNSVTAFTLARKKSLQSLQSTVHYHLGSLALSDLLILLLAMPVELYNFIWVHHPWAFGDAGCRGYYFLRDACTYATALNVASLSVERYLAICHPFKAKTLMSRSRTKKFISAIWLASALLAIPMLFTMGLQNRSGDGTHPGGLVCTPIVDTATVKVVIQVNTFMSFLFPMLVISILNTVIANKLTVMVHQAAEQGRVCTVGTHNGLEHSTFNMTIEPGRVQALRHGVLVLRAVVIAFVVCWLPYHVRRLMFCYISDEQWTTFLFDFYHYFYMLTNALFYVSSAINPILYNLVSANFRQVFLSTLACLCPGWRHRRKKRPTFSRKPNSMSSNHAFSTSATRETLY
# Variants of: B1
# Test: saturation binding assay on intact E. coli cells; intact E. coli cells
row,Kd [nM],Variant
1,0.1,"chain 2 A44L, chain 2 F316A"
